From paper PMC9628495

Columns and labels:
[1] = molecular target: EFc41 (P228L/L234F/E269D/Q342L/E388D/T394A/M428L) Fc variant displayed on the E. coli inner membrane (human); test: flow cytometry on cells; single clones rescued from the fourth round of screening, Fc displayed on E. coli spheroplasts, fluorescent hFcRn probe; screening at pH 5.8, pH of the clone analysis not stated; mean fluorescence intensity
[2] = molecular target: PFc29 (Q311R/M428L) Fc variant displayed on the E. coli inner membrane (human); test: as above
[3] = molecular target: PFc41 (L309G/M428L) Fc variant displayed on the E. coli inner membrane (human); test: as above
[4] = molecular target: trastuzumab-YTE (M252Y/S254T/T256E) (human); test: SPR; Biacore T200; HER2 amine-coupled on a CM5 chip (~3000 RU), trastuzumab-Fc variants captured on it (~300 RU), hFcRn injected at 1000, 500, 250, 125 and 62.5 nM in PBS (printed '10x') with 0.05% Tween 20, pH 6.0, 50 μl/min; 1:1 binding model; 'Steady state' for trastuzumab with wild-type Fc
[5] = molecular target: trastuzumab-LS (M428L/N434S) (human); test: as above
[6] = molecular target: trastuzumab-PFc41 (L309G/M428L) (human); test: as above
[7] = molecular target: trastuzumab-PFc29 (Q311R/M428L) (human); test: as above
[8] = molecular target: trastuzumab (wild-type Fc, prepared in-house) (human); test: as above
[9] = molecular target: human complement C1q (human) (UniProt P02745)
Chain of UniProt P02745 (P02745 23-245, chain 1 of 3): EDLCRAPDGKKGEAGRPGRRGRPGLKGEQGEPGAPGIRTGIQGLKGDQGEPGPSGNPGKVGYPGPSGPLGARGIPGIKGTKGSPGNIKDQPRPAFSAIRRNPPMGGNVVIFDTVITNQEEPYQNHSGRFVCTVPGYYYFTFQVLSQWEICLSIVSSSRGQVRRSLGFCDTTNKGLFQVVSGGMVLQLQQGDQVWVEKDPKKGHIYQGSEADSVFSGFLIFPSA
Chain of UniProt P02745 (P02746 28-253, chain 2 of 3, further chain): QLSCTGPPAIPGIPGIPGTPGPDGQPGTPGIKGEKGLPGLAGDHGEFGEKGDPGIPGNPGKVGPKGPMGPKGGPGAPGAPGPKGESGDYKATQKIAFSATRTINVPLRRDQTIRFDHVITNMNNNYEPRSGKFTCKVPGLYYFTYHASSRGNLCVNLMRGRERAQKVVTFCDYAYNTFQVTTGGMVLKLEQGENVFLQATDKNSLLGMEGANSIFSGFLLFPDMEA
Chain of UniProt P02745 (P02747 29-245, chain 3 of 3, further chain): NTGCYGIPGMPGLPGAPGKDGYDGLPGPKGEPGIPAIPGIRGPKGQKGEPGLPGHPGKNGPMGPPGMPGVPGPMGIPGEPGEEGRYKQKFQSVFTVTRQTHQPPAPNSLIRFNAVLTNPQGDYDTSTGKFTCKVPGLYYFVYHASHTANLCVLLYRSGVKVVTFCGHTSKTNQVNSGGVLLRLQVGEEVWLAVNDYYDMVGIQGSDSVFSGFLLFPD

[10] = molecular target: human FcγRIIIa-158V-GST (dimeric GST-fused form) (human)
Chain of human FcγRIIIa-158V-GST (dimeric GST-fused form) (human) (P08637 17-208): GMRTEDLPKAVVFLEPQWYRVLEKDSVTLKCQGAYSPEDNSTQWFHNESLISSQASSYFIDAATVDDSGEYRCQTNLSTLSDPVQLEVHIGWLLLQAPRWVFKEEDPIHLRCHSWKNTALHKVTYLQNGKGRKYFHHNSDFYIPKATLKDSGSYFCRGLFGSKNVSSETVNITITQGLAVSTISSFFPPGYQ

[11] = molecular target: hFcRn-SA-Alexa 488, P55899;P61769; test: flow cytometry (FACS) of E. coli spheroplasts displaying Fc; conditions: 40 nM hFcRn-SA-Alexa 488, read off a plot
[12] = pH 5.8 in the image key (pH 6.0 in the legend), parent: est. 300

## Alexa 488-labelled hFcRn probe (FcRn-GST or FcRn-streptavidin) (from UniProt P55899 24-297; P61769 21-119) (complex)
[1]
  MFI: 862
[2]
  MFI: 1180
[3]
  MFI: 1910

## monomeric human FcRn (human FcRn α chain-His complexed with human β2-microglobulin) (from UniProt P55899 24-297; P61769 21-119)
[4]
  Kd: 147 nM
[5]
  Kd: 81.6 nM
[6]
  Kd: 198 nM
[7]
  Kd: 149 nM
[8]
  Kd: 647 nM

## rituximab (wild-type Fc, prepared in-house) (antibody)
[9]
  EC50 of CDC (lysis of Raji cells with normal human complement): 0.33 µg/mL

## trastuzumab (wild-type Fc, prepared in-house) (antibody)
[10]
  EC50 of ADCC (ADCC Reporter Bioassay; SKBR-3 target cells, FcγRIIIa-158V-expressing engineered Jurkat effector cells; luminescence): 0.12 µg/mL

## trastuzumab-LS (M428L/N434S) (antibody)
[10]
  EC50 of ADCC (ADCC Reporter Bioassay; SKBR-3 target cells, FcγRIIIa-158V-expressing engineered Jurkat effector cells; luminescence): 0.061 µg/mL

## trastuzumab-PFc29 (Q311R/M428L) (antibody)
[10]
  EC50 of ADCC (ADCC Reporter Bioassay; SKBR-3 target cells, FcγRIIIa-158V-expressing engineered Jurkat effector cells; luminescence): 0.051 µg/mL

## wild-type Fc displayed on the E. coli inner membrane M428L
[11]; [12]
  response: 430 MFI
[11]; pH 7.4, parent: est. 30
  response: 70 MFI

## wild-type Fc displayed on the E. coli inner membrane Q311R
[11]; [12]
  response: 280 MFI
[11]; pH 7.4, parent: est. 30
  response: 40 MFI

## wild-type Fc displayed on the E. coli inner membrane Q311R; M428L
[11]; pH 7.4, parent: est. 30
  response: 80 MFI
